From patent US7528106B2, “Compositions and methods for treatment of neovascular diseases” (The Scripps Research Institute, priority 2004, dated 2009)

Tested on: deep retinal vascular network formation in neonatal Balb/C mice
Assay: Neonatal mouse retinal angiogenesis model
Format: in vivo
Settings: for % of eyes with 0-10% inhibition of deep vascular layer / % of eyes with 10-25% inhibition of deep vascular layer / % of eyes with 25-50% inhibition of deep vascular layer / % of eyes with 50-75% inhibition of deep vascular layer / % of eyes with 75-100% inhibition of deep vascular layer / % of eyes with 100% inhibition of deep vascular layer / % of eyes with >95% inhibition of deep vascular layer: intravitreal P4, read P12
Description: Description of the Model. Immediately after birth (postnatal day zero; “P0”), retinal vasculature is virtually absent in the mouse. By four weeks after birth (P28) the retina has attained an adult pattern of retinal vessels coincident with the onset of vision. Physiological neovascularization of the retina occurs during this period via a stereotypical, biphasic developmental pattern of angiogenesis. During the primary phase of retinal vascular development, spoke-like peripapillary vessels grow radially from the central retinal artery and vein, becoming progressively interconnected by a capillary plexus that forms between them. This “inner retinal plexus” grows in area, volume and complexity, centrifugally, as a monolayer within the nerve fiber layer during the first seven to ten days following birth.
The second phase of retinal vessel formation begins between postnatal days 7 (P7) and 10 (P10) when collateral branches sprout from capillaries of the superficial plexus and penetrate into the retina where their tips branch and anastamose laterally to form a planar “deep vascular plexus”. While the deep vascular plexus is in place by P14, it undergoes extensive remodeling from P14 to P21. It is of interest to note that the formation of these vascular networks in the neonatal mouse are strikingly similar to the events occurring in the third trimester human fetus.
Advantages and Quantification of the Model. The reproducibility of the murine retinal development process and its easy accessibility in neonatal animals provide an opportunity to assess the efficacy of antiangiogenic compounds in a physiologically relevant model of angiogenesis. Additional advantages of the neonatal mouse model are the ability to qualitatively and quantitatively evaluate the angiostatic effect of putative antagonists of angiogenesis. Angiostatic activity was evaluated based upon the degree of angiogenesis in the deep, outer retinal vascular layer (secondary layer) that develops between P8 and P12. The appearance of the inner blood vessel network (primary layer) was evaluated for normal development and signs of toxicity.
Preparation of Compositions. Peptidomimetic integrin signaling inhibitor Compound (1) is solubilized in PBS at a concentration of about 20 mg/ml in PBS (1× concentration). T2-TrpRS is solubilized in PBS at a concentration of about 0.5 mg/ml (1× concentration). VEGF aptamer (pegaptanib sodium; Compound (2)) is solubilized in PBS at a concentration of about 2 mg/ml (1× concentration) to achieve an injection of approximately 1 μg/eye at 1× concentration. For all combination assays the compounds were prepared at 2 or 3 times the 1× concentration of each material and then combined to produce a final solution containing each individual compound at the same concentration as was used alone (e.g., 1×, 0.5×, 0.25× or 0.1×, as the case may be). For all assays, a single injection of 0.5 μl of PBS solutions of the drugs was administered intravitreally regardless of the number of compounds being injected. As used herein, the term “0.1×” refers to one tenth of the 1× concentration of a given material, “0.25×” refers to one quarter of the 1× concentration of a given material, “0.5×” refers to one half of the 1× concentration of a given material, and so forth for similar designations.
An in vivo angiogenesis assay in the neonatal mouse (Balb/C, The Jackson Laboratory, Bar Harbor, Me.) was used to evaluate the angiostatic activity of integrin signaling inhibitor Compound (1), T2-TrpRS, and VEGF aptamer Compound (2). Intravitreous injection and retina isolation was performed with a dissecting microscope (SMZ 645, Nikon, Japan). […] The samples (0.5 μl) were injected with a Hamilton syringe fitted with a 32-gauge needle (Hamilton Company, Reno, Nev.). The injection was made between the equator and the corneal limbus. During injection, the location of the needle tip was monitored by direct visualization to determine that it was in the vitreal cavity. […]

[1] = Ex 2, 0.1× of each (1×: T2-TrpRS 0.5, Comp. (2) 2 mg/ml)
[2] = Ex 3, 1× of each (T2-TrpRS 0.5, Comp. (2) 2 mg/ml)
[3] = Ex 6, 1× of each (T2-TrpRS 0.5, Comp. (2) 2 mg/ml)
[4] = Ex 7, 1× (T2-TrpRS 0.5, Comp. (2) 2 mg/ml)
[5] = Ex 9, 1× of each (Comp. (1) 20, Comp. (2) 2, T2-TrpRS 0.5 mg/ml)

B1: T2-TrpRS: 43 kDa angiostatic T2 fragment of human tryptophanyl-tRNA synthetase, SEQ ID NO: 1 (protein)
chain: MSAKGIDYDKLIVRFGSSKIDKELINRIERATGQRPHHFLRRGIFFSHRDMNQVLDAYENKKPFYLYTGRGPSSEAMHVGHLIPFIFTKWLQDVFNVPLVIQMTDDEKYLWKDLTLDQAYSYAVENAKDIIACGFDINKTFIFSDLDYMGMSSGFYKNVVKIQKHVTFNQVKGIFGFTDSDCIGKISFPAIQAAPSFSNSFPQIFRDRTDIQCLIPCAIDQDPYFRMTRDVAPRIGYPKPALLHSTFFPALQGAQTKMSASDPNSSIFLTDTAKQIKTKVNKHAFSGGRDTIEEHRQFGGNCDVDVSFMYLTFFLEDDDKLEQIRKDYTSGAMLTGELKKALIEVLQPLIAEHQARRKEVTDEIVKEFMTPRKLSFDFQ
modifications: homo sapiens
**Q.** Which results are given for B1?
**A.** inhibition of neovascularization (0.1× concentrations (1 μg/eye integrin antagonist, 0.2 μg/eye VEGF aptamer, 0.025 μg/eye T2-TrpRS)): negligible; % of eyes with 0-10% inhibition of deep vascular layer [1]: 50%; % of eyes with 10-25% inhibition of deep vascular layer [1]: 37.5%; % of eyes with 25-50% inhibition of deep vascular layer [1]: 12.5%; % of eyes with 50-75% inhibition of deep vascular layer [1]: 0%; % of eyes with 75-100% inhibition of deep vascular layer [1]: 0%; % of eyes with 100% inhibition of deep vascular layer [1]: 0%; % of eyes with >95% inhibition of deep vascular layer [1]: 0%; % of eyes with 0-10% inhibition of deep vascular layer [2]: 12.5%; % of eyes with 10-25% inhibition of deep vascular layer [2]: 12.5%; % of eyes with 25-50% inhibition of deep vascular layer [2]: 0%; % of eyes with 50-75% inhibition of deep vascular layer [2]: 12.5%; % of eyes with 75-100% inhibition of deep vascular layer [2]: 62.5%; % of eyes with 100% inhibition of deep vascular layer [2]: 12.5%; % of eyes with >95% inhibition of deep vascular layer [2]: 12.5%; % of eyes with 0-10% inhibition of deep vascular layer (Ex 4, 1× (0.5 mg/ml)): 12.5%; % of eyes with 10-25% inhibition of deep vascular layer (Ex 4, 1× (0.5 mg/ml)): 37.5%; % of eyes with 25-50% inhibition of deep vascular layer (Ex 4, 1× (0.5 mg/ml)): 12.5%; % of eyes with 50-75% inhibition of deep vascular layer (Ex 4, 1× (0.5 mg/ml)): 12.5%; % of eyes with 75-100% inhibition of deep vascular layer (Ex 4, 1× (0.5 mg/ml)): 25%; % of eyes with 100% inhibition of deep vascular layer (Ex 4, 1× (0.5 mg/ml)): 0%; % of eyes with >95% inhibition of deep vascular layer (Ex 4, 1× (0.5 mg/ml)): 0%; % of eyes with 0-10% inhibition of deep vascular layer (Ex 5, 1× (0.5 mg/ml)): 33.3%; % of eyes with 10-25% inhibition of deep vascular layer (Ex 5, 1× (0.5 mg/ml)): 16.7%; % of eyes with 25-50% inhibition of deep vascular layer (Ex 5, 1× (0.5 mg/ml)): 33.3%; % of eyes with 50-75% inhibition of deep vascular layer (Ex 5, 1× (0.5 mg/ml)): 0%; % of eyes with 75-100% inhibition of deep vascular layer (Ex 5, 1× (0.5 mg/ml)): 16.7%; % of eyes with 100% inhibition of deep vascular layer (Ex 5, 1× (0.5 mg/ml)): 0%; % of eyes with >95% inhibition of deep vascular layer (Ex 5, 1× (0.5 mg/ml)): 16.7%; % of eyes with 0-10% inhibition of deep vascular layer [3]: 50%; % of eyes with 10-25% inhibition of deep vascular layer [3]: 25%; % of eyes with 25-50% inhibition of deep vascular layer [3]: 12.5%; % of eyes with 50-75% inhibition of deep vascular layer [3]: 12.5%; % of eyes with 75-100% inhibition of deep vascular layer [3]: 0%; % of eyes with 100% inhibition of deep vascular layer [3]: 0%; % of eyes with >95% inhibition of deep vascular layer [3]: 0%; % of eyes with 0-10% inhibition of deep vascular layer [4]: 25%; % of eyes with 10-25% inhibition of deep vascular layer [4]: 12.5%; % of eyes with 25-50% inhibition of deep vascular layer [4]: 12.5%; % of eyes with 50-75% inhibition of deep vascular layer [4]: 0%; % of eyes with 75-100% inhibition of deep vascular layer [4]: 50%; % of eyes with 100% inhibition of deep vascular layer [4]: 0%; % of eyes with >95% inhibition of deep vascular layer [4]: 12.5%; % of eyes with 0-10% inhibition of deep vascular layer (Ex 8, 1× (0.5 mg/ml)): 30%; % of eyes with 10-25% inhibition of deep vascular layer (Ex 8, 1× (0.5 mg/ml)): 30%; % of eyes with 25-50% inhibition of deep vascular layer (Ex 8, 1× (0.5 mg/ml)): 20%; % of eyes with 50-75% inhibition of deep vascular layer (Ex 8, 1× (0.5 mg/ml)): 10%; % of eyes with 75-100% inhibition of deep vascular layer (Ex 8, 1× (0.5 mg/ml)): 10%; % of eyes with 100% inhibition of deep vascular layer (Ex 8, 1× (0.5 mg/ml)): 0%; % of eyes with >95% inhibition of deep vascular layer (Ex 8, 1× (0.5 mg/ml)): 0%; % of eyes with 0-10% inhibition of deep vascular layer [5]: 12.5%; % of eyes with 10-25% inhibition of deep vascular layer [5]: 0%; % of eyes with 25-50% inhibition of deep vascular layer [5]: 25%; % of eyes with 50-75% inhibition of deep vascular layer [5]: 12.5%; % of eyes with 75-100% inhibition of deep vascular layer [5]: 50%; % of eyes with 100% inhibition of deep vascular layer [5]: 0%; % of eyes with >95% inhibition of deep vascular layer [5]: 12.5%; % of eyes with 0-10% inhibition of deep vascular layer (Ex 10, 0.1× (1×=0.5 mg/ml)): 75%; % of eyes with 10-25% inhibition of deep vascular layer (Ex 10, 0.1× (1×=0.5 mg/ml)): 25%; % of eyes with 25-50% inhibition of deep vascular layer (Ex 10, 0.1× (1×=0.5 mg/ml)): 0%; % of eyes with 50-75% inhibition of deep vascular layer (Ex 10, 0.1× (1×=0.5 mg/ml)): 0%; % of eyes with 75-100% inhibition of deep vascular layer (Ex 10, 0.1× (1×=0.5 mg/ml)): 0%; % of eyes with 0-10% inhibition of deep vascular layer (Ex 10, 0.3× (1×=0.5 mg/ml)): 33.3%; % of eyes with 10-25% inhibition of deep vascular layer (Ex 10, 0.3× (1×=0.5 mg/ml)): 16.7%; % of eyes with 25-50% inhibition of deep vascular layer (Ex 10, 0.3× (1×=0.5 mg/ml)): 8.3%; % of eyes with 50-75% inhibition of deep vascular layer (Ex 10, 0.3× (1×=0.5 mg/ml)): 16.7%
